Data from patent US20250282879A1 (CILAG GMBH INTERNATIONAL, published 2025).
Where two headings read alike, the source gives them in different places.

Key:
[1] = molecular target: T1, recombinant human IL-31 protein (Peprotech) (human, UniProt Q6EBC2 24-164); test: cell-based or functional assay
T1 sequence (looked up): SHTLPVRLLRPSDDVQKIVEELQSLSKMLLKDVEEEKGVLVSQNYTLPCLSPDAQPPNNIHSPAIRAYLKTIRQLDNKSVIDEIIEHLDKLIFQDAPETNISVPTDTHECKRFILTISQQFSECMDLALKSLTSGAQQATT

[2] = molecular target: T1, recombinant human IL-31 protein …; test: competitive ELISA, hIL-31/hIL-31RA
Experimental: Potency of the two humanized scFvs was further determined using a competitive ELISA. The potency of each scFv to inhibit the interaction between human IL-31 and human IL-31RA was assessed by an ELISA using the same procedure as described in EP20216938.9.

[3] = molecular target: T1, recombinant human IL-31 protein …; test: cell-based or functional assay; remark: listed apart in the source
human IL-31-His [4] = molecular target: T2, human IL-31-His (human, UniProt Q6EBC2 24-164); test: SPR, IL-31-His captured, scFv analyte (30 and 10 nM)
T2 construct: captured via an anti-His tag antibody; also called human IL-31 (scFv SPR); not shown: His tag
T2 sequence (looked up): T1 sequence (looked up)
Experimental: (§1) Affinity of the two humanized scFvs to human and cynomolgus IL-31 was determined by SPR analysis on a T200 device (Biacore, GE Healthcare). Cynomolgus IL-31 was manufactured on demand by Sino Biological since it was not available commercially. Human and cynomolgus IL-31-His was captured via an anti-His tag antibody coupled to a carboxylmethylated dextran surface and the scFvs were injected as analyte. After each analyte injection cycle the sensor chip was regenerated and new antigen was captured. The scFvs were measured using a dose response multi-cycle kinetic assay in a high-throughput mode with two concentrations (30 and 10 nM) diluted in running buffer. Obtained sensorgrams were fitted using a 1:1 binding model.
Affinity of PRO1643 and of the optimized anti-IL-31 scFvs to human IL-31 was determined by SPR analysis on a T200 device (Biacore, GE Healthcare), as described above in section 2.2.2. The scFvs were measured using a dose response multi-cycle kinetic assay in a high-throughput mode with two concentrations (30 and 10 nM) diluted in running buffer. Obtained sensorgrams were fitted using a 1:1 binding model.

human IL-31-His [5] = molecular target: T2, human IL-31-His; test: SPR, IL-31-His captured, scFv analyte, full titration mode
human IL-31-His [6] = molecular target: T2, human IL-31-His; test: SPR, IL-31-His captured, scFv analyte, screening mode
Experimental: as §1

[7] = molecular target: T3, human IL-4R on cells (HEK-Blue IL-4/IL-13 cells, human PBMC, human whole blood) (human, UniProt P24394 26-825); test: cell-based or functional assay
[8] = molecular target: T4, human IL-4R (form not stated) (human, UniProt P24394 26-232, limits assumed); test: competition ELISA, hIL-4/IL-4R (plate of PRO1899)
T4 construct: whole entry named; also called hIL-4R

[9] = molecular target: T4, human IL-4R (form not stated); test: competition ELISA, hIL-4/IL-4R (plate of PRO1898)
[10] = molecular target: T5, recombinant cynomolgus monkey IL-31 (ECD with His Tag, Sino Biological) (cynomolgus monkey); test: SPR, Morrison captured on immobilized human IL-4R-Fc, IL-31 analyte
T5 construct: manufactured on demand by Sino Biological; also called cynomolgus IL-31-His; cyno IL-31

[11] = molecular target: T3, human IL-4R on cells (HEK-Blue …); test: cell-based or functional assay; remark: listed apart in the source
[12] = molecular target: T3, human IL-4R on cells (HEK-Blue …); test: cell-based or functional assay; remark: listed apart in the source
[13] = molecular target: T1, recombinant human IL-31 protein …; test: cell-based or functional assay; remark: listed apart in the source
[14] = molecular target: T6, recombinant cynomolgus monkey IL-4R (ECD with His-tag, Acro Biosystems) (cynomolgus monkey, UniProt A0A2K5V556 26-232); test: SPR, Morrison captured via anti-human IgG-Fc, IL-4R ECD-His analyte
T6 construct: bought; also called cynomolgus IL-4R
Experimental: (§2) Binding kinetics (including affinity) of the bispecific Morrison-H (PRO2198, PRO2199) and Morrison-L (PRO2206, PRO2207) molecules to recombinant human IL-4R protein (ECD with His Tag, Sino Biological) were determined by SPR analysis on a T200 device (Biacore, Cytiva). In this SPR experiment, Morrison molecules were captured via an anti-human IgG-Fc antibody (Human Antibody Capture Kit; Biacore, Cytiva) covalently immobilized to a carboxylmethylated dextran surface (CM5 sensorchip; Biacore, Cytiva) and a titration series of human IL-4R ECD was injected as analyte. After each analyte injection cycle, the sensor chip was regenerated (MgCl₂), and new Morrison antibody was subsequently re-captured. […] The apparent dissociation (kd) and association (kₐ) rate constants and the apparent dissociation equilibrium constant (KD) were calculated with the Biacore analysis software (Biacore Evaluation software Version 3.2, Cytiva) using one-to-one Langmuir binding model and quality of the fits was monitored based on Chi2 and U-value, which are measures for the quality of the curve fitting. The binding level was calculated as the maximum stability binding achieved normalized to the theoretical Rmax. Cross-reactivity to cynomolgus monkey IL-4R was measured using the same setup as for the analysis of human IL-4R kinetics, with the difference that recombinant cynomolgus monkey IL-4R (ECD with His-tag, Acro Biosystems) protein was used as analyte instead of human IL-4R.

[15] = molecular target: T7, recombinant human IL-4R protein (ECD with His Tag, Sino Biological) (human, UniProt P24394 26-232); test: as above
T7 construct: extracellular domain; bought; also called human IL-4R ECD; not shown: His Tag
Experimental: as §2

[16] = molecular target: T8, human IL-4R on transfected HEK293T cells (human, UniProt P24394 26-825); test: flow cytometry, transfected HEK293T cells
T8 construct: whole, on cells; also called human IL-4R-expressing HEK293T cells; not shown: V5 Tag fused to the N-terminus of the expression construct
Excerpt: (§3) To test binding of the Morrison-H and Morrison-L antibodies PRO2198, PRO2199, PRO2206 and PRO2207 to human or cynomolgus IL-4R-expressing HEK293T cells, HEK293T cells were transfected with human and cynomolgus IL-4R plasmids and mock plasmid using Lipofectamine3000. Binding of an antibody targeting V5 Tag, which is fused to the N-terminus of human and cynomolgus IL-4R expression constructs, would confirm successful expression of both targets and was thus used as a positive control for plasma membranous binding. The Morrison-H molecule PRO2077 was used as negative control for cynomolgus IL-4R binding since this molecule had not shown any cross-reactivity to cynomolgus IL-4R (see section 5.3.).
(§4) 50,000 transfected HEK293T cells per well were seeded in a 96-well plate. 5-fold serial dilutions of the Morrison-H and Morrison-L antibodies PRO2198, PRO2199, PRO2206 and PRO2207 and of the control molecule PRO2077, which is not cross-reactive to cynomolgus IL-4R, were added at concentrations ranging from 5,000 to 0.32 ng/ml to the plates and incubated for 60 min at 4° C. on a shaker. Supernatants were removed and detection reagent was added for flow cytometry analysis. The geometric mean of the APC fluorescence intensity of single cells was calculated.

[17] = molecular target: T9, cynomolgus IL-4R on transfected HEK293T cells (cynomolgus monkey, UniProt A0A2K5V580 33-832); test: flow cytometry, transfected HEK293T cells
T9 construct: whole, on cells; also called cynomolgus IL-4R-expressing HEK293T cells; not shown: V5 Tag fused to the N-terminus of the expression construct
Excerpt: as §3, §4

[18] = molecular target: T3, human IL-4R on cells (HEK-Blue …); test: cell-based or functional assay; remark: listed apart in the source
[19] = molecular target: T5, recombinant cynomolgus monkey IL-31 …; test: cell-based or functional assay
[20] = molecular target: T1, recombinant human IL-31 protein …; test: cell-based or functional assay; remark: listed apart in the source
[21] = molecular target: T3, human IL-4R on cells (HEK-Blue …); test: cell-based or functional assay; remark: listed apart in the source

T6 sequence (A0A2K5V556 entry or part of it limits assumed): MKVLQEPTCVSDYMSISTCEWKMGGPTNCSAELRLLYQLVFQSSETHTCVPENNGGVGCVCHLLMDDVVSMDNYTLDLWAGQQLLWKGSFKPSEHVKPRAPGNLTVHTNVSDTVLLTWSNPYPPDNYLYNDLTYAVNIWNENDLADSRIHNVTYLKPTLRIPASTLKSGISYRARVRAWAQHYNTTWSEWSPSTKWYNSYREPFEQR
T9 sequence (A0A2K5V580 entry or part of it): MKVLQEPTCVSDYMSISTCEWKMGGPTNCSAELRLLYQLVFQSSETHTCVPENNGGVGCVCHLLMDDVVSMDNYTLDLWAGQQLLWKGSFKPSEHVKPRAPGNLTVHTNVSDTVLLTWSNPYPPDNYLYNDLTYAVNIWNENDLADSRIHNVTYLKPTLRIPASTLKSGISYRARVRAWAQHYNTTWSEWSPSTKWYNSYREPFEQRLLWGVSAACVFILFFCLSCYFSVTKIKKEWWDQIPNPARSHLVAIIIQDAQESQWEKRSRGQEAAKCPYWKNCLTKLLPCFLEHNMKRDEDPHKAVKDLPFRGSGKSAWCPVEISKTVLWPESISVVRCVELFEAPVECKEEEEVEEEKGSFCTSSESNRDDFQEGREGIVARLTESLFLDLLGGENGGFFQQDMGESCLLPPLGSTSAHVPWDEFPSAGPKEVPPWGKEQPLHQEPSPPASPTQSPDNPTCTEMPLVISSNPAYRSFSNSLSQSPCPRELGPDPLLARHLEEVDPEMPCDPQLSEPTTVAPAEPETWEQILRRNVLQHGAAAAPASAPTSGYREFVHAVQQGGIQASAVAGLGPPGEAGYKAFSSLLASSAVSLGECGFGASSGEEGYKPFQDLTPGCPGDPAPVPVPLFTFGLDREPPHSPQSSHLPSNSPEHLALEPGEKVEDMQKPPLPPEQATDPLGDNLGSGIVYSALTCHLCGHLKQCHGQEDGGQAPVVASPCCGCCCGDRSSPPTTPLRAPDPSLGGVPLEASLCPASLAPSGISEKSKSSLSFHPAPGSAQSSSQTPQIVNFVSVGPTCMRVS

B1: PRO1643 (scFv, V domains shown)
VH: QSQLVESGGGLVQPGGSLRLSCAASGFSFSANYWICWVRQAPGKGLEWIVCIYIGSRADTYYAPWAKGRFTISKDNSKNTVYLQMNSLRAEDTAVYFCARFSSGIYDLDRFFLWGQGTLVTVSS
V domain: AFQLTQSPSSLSASVGDRVTITCQASQSIDSWLAWYQQKPGKPPKLLIYQASKLASGVPSRFSGSGSGTDYTLTISSLQPEDFATYYCQTYYGGGHIGWGFGTGTKVTV
notes: anti-IL-31 scFv, full graft; VL entry ends with LCDR3 (no FR4); also called 50-09-D07-sc03
- IC50, neutralization of hIL-31-induced signaling in IL-31RA/OSMR dimerization assay [1]: 11.1 ng/mL
- IC50 [2]: 4.58 ng/mL
- IC50, neutralization of hIL-31-induced signaling in IL-31RA/OSMR dimerization assay [3]: 8.08 ng/mL
- Kd (human IL-31-His [4]): 1.13 nM
- koff (human IL-31-His [4]): 0.000653 s⁻¹
- kon (human IL-31-His [4]): 579000 M⁻¹ s⁻¹
- Kd (human IL-31-His [5]): 0.63 nM
- koff (human IL-31-His [5]): 0.000516 s⁻¹
- kon (human IL-31-His [5]): 820000 M⁻¹ s⁻¹
- Kd (human IL-31-His [6]): 0.505 nM
- koff (human IL-31-His [6]): 0.000447 s⁻¹
- kon (human IL-31-His [6]): 884000 M⁻¹ s⁻¹

B2: dupilumab (antibody, V domains shown)
VH: EVQLVESGGGLEQPGGSLRLSCAGSGFTFRDYAMTWVRQAPGKGLEWVSSISGSGGNTYYADSVKGRFTISRDNSKNTLYLQMNSLRAEDTAVYYCAKDRLSITIRPRYYGLDVWGQGTTVTVSS
VL: DIVMTQSPLSLPVTPGEPASISCRSSQSLLYSIGYNYLDWYLQKSGQSPQLLIYLGSNRASGVPDRFSGSGSGTDFTLKISRVEAEDVGFYYCMQALQTPYTFGQGTKLEIKR
- IC50, neutralization of hIL-4 induced signaling, stat-6 reporter gene assay [7]: 1.15 ng/mL
- IC50, neutralization of hIL-13 induced signaling, stat-6 reporter gene assay [7]: 1 ng/mL
- IC50 [8]: 6.18 ng/mL
- IC50 [9]: 6.78 ng/mL

B3: PRO2198 (bispecific antibody, human IgG4 S228P, kappa)
light: DIQMTQSPSSLSARVGDRVTITCQASEDIESYLAWYQQKPGKAPKLLIYRASTLAYGVPSRFSGSGSGRDFTLTISSLQPEDFATYYCLGSSYSTGSNIFGQGTKVEIKRTVAAPSVFIFPPSDEQLKSGTASVVCLLNNFYPREAKVQWKVDNALQSGNSQESVTEQDSKDSTYSLSSTLTLSKADYEKHKVYACEVTHQGLSSPVTKSFNRGEC
heavy: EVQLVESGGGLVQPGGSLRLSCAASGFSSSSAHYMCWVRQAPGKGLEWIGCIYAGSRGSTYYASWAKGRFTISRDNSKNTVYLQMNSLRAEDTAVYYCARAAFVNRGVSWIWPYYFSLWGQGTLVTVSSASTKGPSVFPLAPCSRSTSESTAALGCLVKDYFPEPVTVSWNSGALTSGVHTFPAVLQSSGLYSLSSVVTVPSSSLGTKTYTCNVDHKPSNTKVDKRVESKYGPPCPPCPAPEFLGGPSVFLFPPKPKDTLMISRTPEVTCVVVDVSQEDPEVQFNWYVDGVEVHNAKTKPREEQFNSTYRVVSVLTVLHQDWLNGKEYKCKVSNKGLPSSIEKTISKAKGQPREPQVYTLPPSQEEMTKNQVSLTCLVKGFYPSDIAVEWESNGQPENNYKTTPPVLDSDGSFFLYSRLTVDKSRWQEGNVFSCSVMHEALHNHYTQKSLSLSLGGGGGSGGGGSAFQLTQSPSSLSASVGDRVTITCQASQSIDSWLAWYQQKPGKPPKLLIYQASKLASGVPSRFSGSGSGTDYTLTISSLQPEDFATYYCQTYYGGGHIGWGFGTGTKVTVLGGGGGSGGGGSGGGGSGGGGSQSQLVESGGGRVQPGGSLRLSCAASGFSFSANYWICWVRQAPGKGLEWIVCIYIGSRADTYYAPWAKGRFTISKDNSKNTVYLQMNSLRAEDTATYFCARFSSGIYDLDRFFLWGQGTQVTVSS
notes: IgG4 (S228P) Morrison-H, anti-IL-4R Fab arms, anti-IL-31 scFv on the C-terminus of the heavy chain; tetravalent, bispecific; also called Morrison-H; MorrH
- Kd [10]: 0.01 nM
- Mean IC50, human IL-13-induced signaling, stat-6 reporter gene assay [11]: 0.0221 nM
- IC50, IL-4-induced TARC secretion in human whole blood [12]: < 0.5 nM
- IC50 (read off the curve), human IL-31-induced IL-31RA/OSMR dimerization, with an excess of IL-4R extracellular domain in the medium [13]: ~0.2 nM
- Kd [14]: 0.144 nM
- koff [14]: 4.9e-05 s⁻¹
- kon [14]: 370000 M⁻¹ s⁻¹
- Kd [15]: 0.291 nM
- koff [15]: 0.000101 s⁻¹
- kon [15]: 352000 M⁻¹ s⁻¹
- EC50 [16]: 1.11 nM
- EC50 [17]: 0.97 nM
- IC50, IL-4-induced CD23 expression, memory B cells [18]: 4.47 nM
- IC50, IL-4-induced CD23 expression, monocytes (blood donor 1) [18]: 0.0904 nM
- IC50, IL-4-induced CD23 expression, naive B cells [18]: 1.37 nM
- IC50, cynomolgus IL-31-induced IL-31RA/OSMR dimerization (RLU) [table under the graph] [19]: 0.959 nM
- Mean IC50, human IL-31-induced signaling, IL-31RA/OSMR dimerization assay [20]: 0.198 nM
- Mean IC50, human IL-4-induced signaling, stat-6 reporter gene assay [21]: 0.0239 nM
